Experimental data as given in patent publication US20100316644A1 (ACCELERON PHARMA, published 2010).

T1: Activin B (UniProt P09529 293-407)
T1 sequence (looked up): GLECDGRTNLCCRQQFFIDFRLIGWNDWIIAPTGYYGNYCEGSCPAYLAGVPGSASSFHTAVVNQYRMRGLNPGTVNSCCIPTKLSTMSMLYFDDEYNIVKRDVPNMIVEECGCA

T2: Activin A (UniProt P08476 311-426)
T2 sequence (looked up): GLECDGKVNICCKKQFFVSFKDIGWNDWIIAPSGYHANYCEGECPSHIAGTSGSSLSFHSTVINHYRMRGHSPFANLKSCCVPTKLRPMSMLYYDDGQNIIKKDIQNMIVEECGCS

B1: ActRIIB(20-134)-hFc (Fc fusion, not shown: a dimerising Fc or GST)
chain: GRGEAETRECIYYNANWELERTNQSGLERCEGEQDKRLHCYASWRNSSGTIELVKKGCWLDDFNCYDRQECVATEENPQVYFCCCEGNFCNERFTHLPEAGGPEVTYEPPPTAPT
notes: The residue range comes from the construct name; also called full-length counterpart ActRIIB(20-134)-hFc
B2: Growth and Differentiation Factor-11 (GDF11) (ligand, UniProt O95390 299-407, looked up)
chain: NLGLDCDEHSSESRCCRYPLTVDFEAFGWDWIIAPKRYKANYCSGQCEYMFMQKYPHTHLVQQANPRGSAGPCCTPTKMSPINMLYFNDKQQIIYGKIPGMVVDRCGCS
notes: also called BMP11

Tests used:
Experiment in all cases: Biacore, steady-state affinity fit
Activin B = target: T1, Activin B
Text: (§1) Kd values were obtained by steady-state affinity fit due to very rapid association and dissociation of the complex, which prevented accurate determination of kₒₙ and koff.

Activin A = target: T2, Activin A
Text: as §1

ActRIIB(20-134)-hFc = target: B1
Text: as §1

| Kd (Activin B) [nM] | Kd (Activin A) [nM] | Kd (ActRIIB(20-134)-hFc) [nM] | Binder |
| --- | --- | --- | --- |
| 0.012 | 0.016 |  | B1 |
|  |  | 0.036 | B2 |
